Key:
ACE2(HH:NN)-Fc (human) = ACE2(HH:NN)-Fc (human) (UniProt Q9BYF1); assay: SPR
[1] = molecular target: ACE2(HH:NN)-Fc LALA-PG (human) (UniProt Q9BYF1); assay: SPR

SARS-CoV-2 S1 B.1.1.7 (from UniProt P0DTC2 14-680) (domain or fragment)
fold enhanced affinity (against S1 WT) (ACE2(HH:NN)-Fc (human)): 3 fold | fold enhanced affinity (against S1 WT) [1]: 3 fold
